This test has as its target C-terminal domain of the NS2 protein of hepatitis C virus, amino acids 94 to 217 of NS2 from HCV genotype 1a strain H77 (residues 903 to 1026 of the HCV polyprotein) (hepatitis C virus genotype 1a strain H77) (UniProt P27958). As to the kind of experiment: X-ray crystal structure.

The substance “C-terminal domain of the NS2 protein of hepatitis C virus, amino acids 94 to 217 of NS2 from HCV genotype 1a strain H77 (residues 903 to 1026 of the HCV polyprotein) (from UniProt P27958) (enzyme)” returned a total buried surface area of 1100 Å^2.

Values taken from patent publication US20090233266A1.
